Assay results from US20110305670A1.

What was measured:
[1] = target: envelope glycoprotein of the R5 isolate YU2, on virus (HIV-1 (YU2 isolate)) (UniProt P35961); assay: cell-based or functional assay
[2] = target: envelope glycoprotein of the R5X4 isolate 89.6, on virus (HIV-1 (89.6 isolate)) (UniProt Q73372); assay: cell-based or functional assay

Chain of UniProt P35961 (P35961 32-843): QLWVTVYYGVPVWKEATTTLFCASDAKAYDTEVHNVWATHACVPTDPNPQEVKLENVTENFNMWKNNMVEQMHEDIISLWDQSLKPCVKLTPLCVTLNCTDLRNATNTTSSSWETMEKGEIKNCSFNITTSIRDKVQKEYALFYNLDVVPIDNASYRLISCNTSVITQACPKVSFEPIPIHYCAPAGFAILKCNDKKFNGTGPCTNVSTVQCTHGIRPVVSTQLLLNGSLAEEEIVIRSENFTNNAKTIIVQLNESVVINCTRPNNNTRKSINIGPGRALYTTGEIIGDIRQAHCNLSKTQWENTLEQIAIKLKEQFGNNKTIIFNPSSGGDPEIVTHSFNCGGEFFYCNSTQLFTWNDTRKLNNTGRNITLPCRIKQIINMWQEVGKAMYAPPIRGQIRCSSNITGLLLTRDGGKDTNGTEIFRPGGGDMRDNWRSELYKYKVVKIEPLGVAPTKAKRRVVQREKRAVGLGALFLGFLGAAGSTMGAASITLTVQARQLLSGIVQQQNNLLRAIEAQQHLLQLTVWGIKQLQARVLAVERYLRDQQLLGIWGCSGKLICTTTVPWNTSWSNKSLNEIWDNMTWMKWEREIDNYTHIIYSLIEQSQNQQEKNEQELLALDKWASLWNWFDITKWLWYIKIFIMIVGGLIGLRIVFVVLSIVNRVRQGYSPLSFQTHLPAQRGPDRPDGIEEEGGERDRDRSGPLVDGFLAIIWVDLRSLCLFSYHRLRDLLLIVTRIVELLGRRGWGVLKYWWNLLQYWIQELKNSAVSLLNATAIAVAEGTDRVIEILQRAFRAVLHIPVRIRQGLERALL

## eCD4-Ig (from UniProt P01730 26-203) (Fc fusion)
[1]
  IC50 difference between CD4-Ig and eCD4-Ig (fold): 3 fold
  neutralization of GFP-expressing HIV-1, IC50: 2 nM
[2]
  IC50 difference between CD4-Ig and eCD4-Ig (fold): 50 fold
  neutralization of GFP-expressing HIV-1, IC50: 0.6 nM
